According to US20160251675:

System: Plant OsNAM12.1 (SUMOylated, from rice root protein extract; genotype of the sample not stated)

deSUMOylating protease Ulp1
deSUMOylation by protease treatment, immunoblot: putative di-SUMOylated (-53 kD; 29+12+12) rather than the putative mono-SUMOylated (-41 kD; 29+12) OsNAM12.1 was preferentially deSUMOylated
